This note sets out measurements from publication PMC6842167 (Retrovirology, 2019).

The target of this test is T1, Recombinant human two-domain CD4 (Homo sapiens).
T1 construct: also called 2dCD4; N-terminal two domain fragment of human CD4
The test is described as follows: ELISA; decreasing concentrations of 2dCD4 immobilised directly on a 96 well plate; antibodies at 1 µg/ml; anti-human HRP secondary, absorbance at 450 nm. The conditions noted are these: both partners purified.

B1: ibalizumab (antibody, V domains shown)
VH: QVQLQQSGPEVVKPGASVKMSCKASGYTFTSYVIHWVRQKPGQGLDWIGYINPYNDGTDYDEKFKGKATLTSDTSTSTAYMELSSLRSEDTAVYYCAREKDNYATGAWFAYWGQGTLVTVSS
VL: DIVMTQSPDSLAVSLGERVTMNCKSSQSLLYSTNQKNYLAWYQQKPGQSPKLLIYWASTRESGVPDRFSGSGSGTDFTLTISSVQAEDVAVYYCQQYYSYRTFGGGTKLEIK
notes: also called iMab; parental iMab antibody; source: HEK293T, transiently transfected, purified (Protein-A, SEC); copies: + +
As for B1, the binding result was “binds”.
